Data published in patent US12527862B2, “Bactericidal/permeability increasing protein for use in a method of immunization, preferably as an adjuvant in a method of vaccination” (UNIVERSITÄT REGENSBURG, priority 2018, dated 2026).

Columns and labels:
[1] = test system: murine macrophages (BMDM); assay: TNFα ELISA in murine macrophages (BMDM); type: cell-based; details: LPS Ec 10 ng/ml or BPI 100 nM, 18 h, ELISA (FIG. 4B)
Method: (§1) Generation of BMDM was carried out similarly to BMDCs; MCSF was used instead of GMSCF for differentiation of BMDM. Cells were re-plated on day 1 of culture and harvested on day 5. On day 1, cells were seeded in new plates and harvested on day 5 for the experiments. Cells were stimulated with LPS Ec (10 ng/ml) or BPI (100 nM) for 18 h before supernatants were collected. TNFα levels were determined by ELISA (OPTEIA™ Murine TNFα ELISA Set, BD Bioscience, Heidelberg, Germany).

[2] = test system: murine dendritic cells (BMDC); assay: TNFα ELISA in murine dendritic cells (BMDC); type: cell-based; details: LPS Ec 10 ng/ml or BPI 100 nM, 18 h, ELISA (FIG. 4A)
Method: as §1

BMDCs = assay: Cytokine protein secretion by BMDCs (Luminex); type: cell-based, C57BL/6J mice
Method: All methods mentioned in this example were carried out as described in the preceding examples. Cells were stimulated with Zymosan depleted (Zymd, 5 μg/ml) from Invivogen (San Diego, CA, USA) or (R)-Pam3CSK4 (bLP, 10 nM) from EMC Microcollections GmbH (Tübingen, Germany). Protein secretion analysis was performed using the supernatants.
To quantify the interleukin and chemokine protein-level after stimulation with huBPI, Zymd, and (R)-Pam CSK4, a multiplex-system was used and determined by using the Luminex® technology (Austin, TX, USA). The cytokines were captured with anti-mouse capture-antibodies and detected by biotinylated antibodies specific for the respective protein (Table 3). Protein concentrations were calculated using a reconstituted standard curve of the analyzed proteins (SM039, #LMC4031, Lot #1438354; Thermo Fisher Scientific; Standard Mix 1a, #EPX010-20603-901, Lot #111709101, eBioscience).

[3] = test system: bone marrow derived dendritic cells (BMDCs); assay: FACS surface expression of maturation markers/costimulatory molecules on BMDCs; type: cell-based, C57BL/6J mice; details: huBPI 200 nM, 18 h, vs unstimulated cells, n=4 (FIG. 1)
Method: BMDCs were generated from the bone marrow of male C57BL/6J mice at the age of approximately 3 to 7 months, which were bred under SPF conditions. BMDCs were generated as previously described. BMDCs were harvested on day 7 by rinsing the dish in order to obtain the non-adherent and loosely-adherent cell fractions.
Cell Stimulation 5×10^4 BMDCs per well were seeded into a tissue-culture-treated 96-well plate in VLE-RPMI 1640 media (10% FCS, 10% Penicillin-Streptomycin, 50 µM β-Mercaptoethanol) and stimulated with 200 nM huBPI.
BMDCs were stimulated with huBPI (200 nM) for 18 h. After the stimulation period, the stimulated and unstimulated cells were incubated with Fc-Block and stained using the indicated antibodies (Table 1) and the respective isotype controls (Table 2). 7-Aminoactinomycin D (7-AAD, #00-6993-50, eBioscience) positive stained cells were excluded from the analysis. Flow cytometry measurement was performed using the instrument BD FACS Canto™ II (BD Bioscience). Data was analyzed using BD FACSDiva™ software v.7.0 (BD Bioscience) as well as FlowJo v.10 (Tree Star).

[4] = test system: bone-marrow derived dendritic cells; assay: Microarray gene expression analysis in BMDCs; type: cell-based, C57BL/6J mice; details: 4 h
Method: All methods mentioned in this example were carried out as described in Example 1. BMDCs were seeded into a tissue-culture-treated 96-well plate in VLE-RPMI 1640 media (10% FCS, 10% Penicillin-Streptomycin, 50 μM β-Mercaptoethanol) and stimulated with 200 nM huBPI or muBPI. 4 h after stimulation, gene expression analysis was performed by microarray analysis (Affymetrix Mouse Gene 2.0 ST, FIGS. 2A and 2B).

B1: bactericidal/permeability-increasing protein (protein)
chain: RIKIPDYSDSFKIKHLGKGHYSFYSMDIREFQLPSSQISMVPNVGLKFSISNANIKISGKWKAQKRFLKMSGNFDLSIEGMSISADLKLGSNPTSGKPTITCSSCSSHINSVHVHISKSKVGWLIQLFHKKIESALRNKMNSQVCEKVTNSVSSELQPYFQTLPVMTKIDSVAGINYGLVAPPATTAETLDVQMKGEFYSENHHNPPPFAPPVMEFPAAHDRMVYLGLSDYFFNTAGLVYQEAGVLKMTLRDDMIPKESKFRLTTKFFGTFLPEVAKKFPNMKIQIHVSASTPPHLSVQPTGLTFYPAVDVQAFAVLPNSSLASLFLIGMHTTGSMEVSAESNRLVGELKLDRLLLELKHSNIGPFPVELLQDIMNYIVPILVLPRVNEKLQKGFPLPTPARVQLYNVVLQPHQNFLLFGADVVYK
modifications: labeled with NT647 (Monolith NT Protein Labeling Kit RED-NHS) in the MST experiments
notes: recombinant human BPI, aa32-487 of huBPI with N-terminal HA signal peptide, expressed in HEK293T cells
TNFα secretion by macrophages [1]: not in response to stimulation with BPI
TNFα secretion by dendritic cells [2]: secrete TNFα
IL-4 level (BMDCs; BMDCs (FIG. 12)): not induced
IL-2, IL-12p40/p70, and IL-6 protein secretion (BMDCs; Luminex, n>7, 4h (FIG. 3)): increase of IL-2, IL-12p40/p70, and IL-6 protein secretion
stimulatory effect on the expression of IL-6 (IL-6 level), BPI vs Zymd vs bLP (BMDCs; Zymd 5 μg/ml, bLP 10 nM, Luminex, n>7, 4h (FIG. 3)): comparable
increase of IL-2 and IL12p40/p70 compared to Zymd and bLP (BMDCs; vs Zymd 5 μg/ml and bLP 10 nM, Luminex, n>7, 4h (FIG. 3)): significantly higher
expression of costimulatory receptors CD40, CD80, and CD86 [3]: promotes expression of costimulatory receptors CD40, CD80, and CD86
immunostimulatory effect on BMDCs (gene expression) ([4]; 200 nM huBPI or muBPI, microarray (FIG. 2A)): shows an immunostimulatory effect on BMDCs
induced genes important for activation and priming of T cells ([4]; 200 nM, microarray (FIG. 2B)): IL-2 is the highest induced cytokine
